Measurements as given in paper PMC2868043, “The Yeast Cell Fusion Protein Prm1p Requires Covalent Dimerization to Promote Membrane Fusion” (PLoS ONE, 2010).

Experiments:
[1] = biological target: the molecule itself; assay: non-reducing SDS-PAGE and Western blot; whole cell lysate, reducing agent omitted from the sample buffer; cells induced with 10 µg/ml α-factor for 90 min (GFP alleles, anti-GFP blot) or with galactose (HA-PRM1, anti-HA blot); shows only SDS-resistant covalent dimers
[2] = biological target: the molecule itself; assay: non-reducing SDS-PAGE + affinity purification with mass spectrometry; Prm1p purified from mating cells under native conditions by α-myc immunoprecipitation, eluted with 2% SDS, 10% bis-Tris gel, colloidal blue staining; unreduced sample analysed by mass spectrometry (data not shown)

Row | Protein | stoichiometry N [1] | stoichiometry N [2]
1 | Prm1-GFP (natural protein, S. cerevisiae, UniProt P53835 1-661, looked up, Prm1p, mating-specific multipass membrane protein of S. cerevisiae; monomer 73 kD; Glycosylated (sugar modifications); Forms a disulfide-linked homodimer; also called Prm1p; source: S. cerevisiae (W303 derivatives), PRM1 promoter, induced with α-factor or by mating; in whole cell lysate or Triton X-100 solubilised membranes; not shown: GFP, C-terminal, kept) MSGFKCYLQLGDRLSQIWLNKYTLVLLLAMLKLLFFSKSIQHAIEVSETYILSNCYSIDSLYSKMTDNTPHYLGIMGNYLIEKGMEETVKATLETLSLIVYASEGLVNFAIDLYLGTYACLIVSAVDGTVDVATNITEKLISLVNDTVSSVANELDTGLNDISKIINKVIKAASKVENFFTGDDDDSNMTSSIKSVNLTISALHNLYIPSSINDKLEELSAKTPDFAQVKNTTKNLISVPFNEVRKNIKAVNASNIIGDTSVLYVPPVSLDNSTGICSSNQSEILAFYSILGHVLKIATVVCITVLICFAVGAMAPVAWNEIKLWRRLCGMRDHYMLSRQDSYTSFSSENTHELKDPFRDPPIQNGQYDVIASYQQCFQTWNTRIAGWMTNLVTFGKSPENIDPKTKQKIEWVVAYMTSERALCVLGIGLLGILVCICQFVMIALLKHKISHSLTSNDGDGVQNLLKSSTAVDIENQMSLWSVQTNKYINTTETNINQEVFGWINTTTLSVNNTVATMISDIDTTLADVFNGTLLYNPMKTVVGCAIENKLYTIEKAMTWIHDKAQLHIPRINGTQIKQALAKQTDNSTIPTASSTSAATENLLENLVNDMREGLLKILRAYHRITLGELTVALVILAVWLVQLPIALVILRLRLRKATFD | 2 | 
2 | Prm1-myc (natural protein, S. cerevisiae, UniProt P53835 1-661, looked up, Prm1p, mating-specific multipass membrane protein of S. cerevisiae; Made by replacing the GFP of the PRM1-GFP plasmid with the tag of a PRM1-myc strain, so the tag is probably C-terminal; also called Prm1p; source: S. cerevisiae (W303 derivatives), PRM1 promoter, mating cells; in Triton X-100 solubilised membranes, or purified by α-myc immunoprecipitation) MSGFKCYLQLGDRLSQIWLNKYTLVLLLAMLKLLFFSKSIQHAIEVSETYILSNCYSIDSLYSKMTDNTPHYLGIMGNYLIEKGMEETVKATLETLSLIVYASEGLVNFAIDLYLGTYACLIVSAVDGTVDVATNITEKLISLVNDTVSSVANELDTGLNDISKIINKVIKAASKVENFFTGDDDDSNMTSSIKSVNLTISALHNLYIPSSINDKLEELSAKTPDFAQVKNTTKNLISVPFNEVRKNIKAVNASNIIGDTSVLYVPPVSLDNSTGICSSNQSEILAFYSILGHVLKIATVVCITVLICFAVGAMAPVAWNEIKLWRRLCGMRDHYMLSRQDSYTSFSSENTHELKDPFRDPPIQNGQYDVIASYQQCFQTWNTRIAGWMTNLVTFGKSPENIDPKTKQKIEWVVAYMTSERALCVLGIGLLGILVCICQFVMIALLKHKISHSLTSNDGDGVQNLLKSSTAVDIENQMSLWSVQTNKYINTTETNINQEVFGWINTTTLSVNNTVATMISDIDTTLADVFNGTLLYNPMKTVVGCAIENKLYTIEKAMTWIHDKAQLHIPRINGTQIKQALAKQTDNSTIPTASSTSAATENLLENLVNDMREGLLKILRAYHRITLGELTVALVILAVWLVQLPIALVILRLRLRKATFD |  | 2
3 | HA-Prm1p (natural protein, S. cerevisiae, UniProt P53835 1-661, looked up, Prm1p, S. cerevisiae, under control of the GAL1 promoter; also called GALPRO-HA-PRM1; source: S. cerevisiae (W303 derivative), genomic GAL1 promoter fusion, galactose induced; in whole cell lysate) MSGFKCYLQLGDRLSQIWLNKYTLVLLLAMLKLLFFSKSIQHAIEVSETYILSNCYSIDSLYSKMTDNTPHYLGIMGNYLIEKGMEETVKATLETLSLIVYASEGLVNFAIDLYLGTYACLIVSAVDGTVDVATNITEKLISLVNDTVSSVANELDTGLNDISKIINKVIKAASKVENFFTGDDDDSNMTSSIKSVNLTISALHNLYIPSSINDKLEELSAKTPDFAQVKNTTKNLISVPFNEVRKNIKAVNASNIIGDTSVLYVPPVSLDNSTGICSSNQSEILAFYSILGHVLKIATVVCITVLICFAVGAMAPVAWNEIKLWRRLCGMRDHYMLSRQDSYTSFSSENTHELKDPFRDPPIQNGQYDVIASYQQCFQTWNTRIAGWMTNLVTFGKSPENIDPKTKQKIEWVVAYMTSERALCVLGIGLLGILVCICQFVMIALLKHKISHSLTSNDGDGVQNLLKSSTAVDIENQMSLWSVQTNKYINTTETNINQEVFGWINTTTLSVNNTVATMISDIDTTLADVFNGTLLYNPMKTVVGCAIENKLYTIEKAMTWIHDKAQLHIPRINGTQIKQALAKQTDNSTIPTASSTSAATENLLENLVNDMREGLLKILRAYHRITLGELTVALVILAVWLVQLPIALVILRLRLRKATFD | 2 | 
